Key:
CD64 (FcγRI) [1] = biological target: CD64 (FcγRI) (UniProt P12314); test: solution affinity SPR: inhibition of CD64 binding to immobilized IgG1 MAb
CD16 (FcγRIIIa V158) [2] = biological target: CD16 (FcγRIIIa V158) (UniProt P08637); test: solution affinity SPR: inhibition of CD16 binding to immobilized IgG1 MAb
CD64 (FcγRI) [3] = biological target: CD64 (FcγRI) (UniProt P12314); test: solution affinity SPR: antibody titrated into CD64, inhibition of CD64 binding to immobilized IgG1 MAb; average of two titrations
CD16 (FcγRIIIa V158) [4] = biological target: CD16 (FcγRIIIa V158) (UniProt P08637); test: solution affinity SPR: antibody titrated into CD16, inhibition of CD16 binding to immobilized IgG1 MAb; average of two titrations
CD32a = CD32a (UniProt P12318); test: solution affinity SPR: inhibition of CD32a binding to immobilized IgG1 MAb
Chain of CD32a (P12318 34-217 limits assumed): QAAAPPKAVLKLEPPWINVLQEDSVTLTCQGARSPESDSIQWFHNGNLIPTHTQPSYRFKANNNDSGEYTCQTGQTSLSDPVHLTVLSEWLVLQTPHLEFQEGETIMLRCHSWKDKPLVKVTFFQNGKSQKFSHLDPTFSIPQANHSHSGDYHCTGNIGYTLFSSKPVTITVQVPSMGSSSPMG

Chain of CD16 (FcγRIIIa V158) (P08637 17-208 F176V limits assumed): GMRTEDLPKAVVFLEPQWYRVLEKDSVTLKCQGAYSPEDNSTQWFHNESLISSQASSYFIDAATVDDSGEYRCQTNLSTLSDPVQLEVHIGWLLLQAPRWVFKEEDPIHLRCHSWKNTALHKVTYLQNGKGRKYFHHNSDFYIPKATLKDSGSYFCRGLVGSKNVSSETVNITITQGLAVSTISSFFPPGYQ
Chain of CD64 (FcγRI) (P12314 16-288 limits assumed): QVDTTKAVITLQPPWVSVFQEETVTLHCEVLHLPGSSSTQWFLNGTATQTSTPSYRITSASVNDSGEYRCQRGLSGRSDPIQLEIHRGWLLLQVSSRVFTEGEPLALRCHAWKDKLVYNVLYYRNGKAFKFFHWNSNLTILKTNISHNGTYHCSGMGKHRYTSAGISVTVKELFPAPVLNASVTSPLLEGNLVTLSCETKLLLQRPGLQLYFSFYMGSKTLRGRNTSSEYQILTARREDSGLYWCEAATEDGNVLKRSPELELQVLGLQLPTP

Substance: EAG2380 (hu5c8 aglycosylated IgG1 T299F) (antibody)
- IC50 (CD64 (FcγRI) [1]): 345 µM

Substance: EAG2390 (hu5c8 aglycosylated IgG1 T299P) (antibody)
- IC50 (CD64 (FcγRI) [1]): 392 µM

Substance: EAG2377 (hu5c8 aglycosylated IgG1 T299N) (antibody)
- IC50 (CD64 (FcγRI) [1]): 586 µM

Substance: EAG2378 (hu5c8 aglycosylated IgG1 T299R) (antibody)
- IC50 (CD64 (FcγRI) [1]): 5970 µM

Substance: CN578 (hu5c8 aglycosylated IgG1 T299K) (antibody)
- IC50 (CD16 (FcγRIIIa V158) [2]): 1320 µM
- IC50 (CD64 (FcγRI) [3]): 1420 µM

Substance: IgG1 control antibody (hu5c8 wild-type glycosylated IgG1)
- IC50 (CD16 (FcγRIIIa V158) [4]): 100 µM
- IC50 (CD16 (FcγRIIIa V158) [2]): 105 µM
- IC50 (CD64 (FcγRI) [3]): 9.64 µM

Substance: EAG2379 (hu5c8 aglycosylated IgG1 T299E) (antibody)
- IC50 (CD64 (FcγRI) [1]): 196 µM
- IC50 (CD32a): 1280 µM

Substance: IgG1 T299A (hu5c8 aglycosylated IgG1) (antibody)
- IC50 (CD64 (FcγRI) [3]): 205 µM

Substance: EAG2389 (hu5c8 aglycosylated IgG1 T299Q) (antibody)
- IC50 (CD64 (FcγRI) [1]): 455 µM

Substance: EAG2476 (YC406-Fc; agly IgG4-Fc T299K, T307P, L309K, D399S, no Fab) (from UniProt P01861 99-325)
- IC50 (CD16 (FcγRIIIa V158) [2]): 1320 µM

Substance: EAG2478 (CN578-Fc; agly IgG1 Fc T299K, no Fab) (from UniProt P0DOX5 218-448)
- IC50 (CD16 (FcγRIIIa V158) [2]): 6000 µM

From patent US20120100140A1
